In one series the target is ERK1 (Rattus norvegicus, UniProt P21708). The experiment in a line: Phosphorylation of substrates by purified, activated ERK1 (32P incorporation, P81 paper). The series is classed as biochemical. The note with it: for RELATIVE 32P INCORPORATION (% OF MBP): peptides 1 mM, MBP 20 μM, 10 min at 30° C., median of three determinations. From the text:
Materials: Purified peptides were obtained from Sigma (St. Louis, Mo.) or custom synthesized by Louisiana State University Health Science Center Core Laboratories (New Orleans La.). Purified, activated ERK1 was a gift from Dr. M. H. Cobb (University of Texas Southwestern Medical Center, Dallas, Tex.). Purified, recombinant, activated ERK2 was a gift from Dr. N. G. Ahn (University of Colorado, Boulder, Colo.). Except as indicated below, other materials were purchased from Sigma. The new synthetic peptides modeled after Ser31 in human tyrosine hydroxylase are indicated.
(§1) ERK activity assays: Aliquots of supernatants or ERK1/2 immunoprecipitates (suspended in lysis solution) were mixed with substrate (1 mM final, unless stated otherwise) at 4° C. Phosphorylation reactions were initiated by addition of an equal volume of assay buffer containing [γ-^32P]ATP (NEN Life Sciences Products, now PerkinElmer Life Sciences, Boston, Mass.) and Mg^++ and allowed to proceed for 10 min at 30° C., after which duplicate 20 μl aliquots were spotted onto Whatman P81 paper. As would be predicted by the presence of multiple basic residues in the peptides, the ability of P81 paper to bind >90% of each of the peptides used in Tables 2 and 3 was confirmed by UV detection following RP-HPLC. The final reaction mixtures (50 μl) contained 50 mM β-glycerophosphate, 10 mM MgCl2, 1 mM EGTA, 1 mM dithiothreitol, 1 mM benzamidine, 0.1 mM ATP, 0.1 mM Na3VO4, 10 μM calmidazolium, 2 μM peptide inhibitor of cyclic AMP-dependent protein kinase ([…], SEQ ID NO: 24), 10 μg/ml leupeptin, and 0.025% Tween 20.
To test the effectiveness of various peptide substrates, peptide substrates were compared with myelin basic protein (“MBP,” SEQ ED NO: 1) for relative ability to be phosphorylated by purified ERK1 or ERK2. The ERK activity assay was as described above in Example 1. In Table 2, each value represents the median of three independent determinations, performed in duplicate. While all peptides were assayed at a concentration of 1 mM, MBP phosphorylation—given as a frame of reference at a concentration typically used in such assays—was assayed at 20 μM. ^32P incorporation into MBPtide (SEQ ID NO: 2) was 330 nmol/min/mg under the assay conditions used.

The target of series [1] is T1, ERK2 (Rattus norvegicus, UniProt P63086). The experiment in a line: Steady-state kinetic analyses of peptide substrates for ERK2. The series is classed as biochemical. Particulars: for Kmin(app) / Vmax(app) Relative: median of three determinations; for Vmax(app) Relative: relative values. The procedure: as §1
In Table 5, each value represents the median of three independent determinations, performed in duplicate. […] See I. Kameshita et al., 1997. […] 355, pp. 5641-5646 (1996); see also C. N. Prowse et al., “Catalytic reaction pathway for the mitogen-activated protein kinase ERK2,” Biochem., vol. 39, pp. 6258-6266 (2000).

The subject of another series is ERK1/2. The experiment in a line: In vitro kinase assay on PC12 cellular extracts with no further purification (with and without nerve growth factor). In kind it is biochemical, rat. Particulars: for pattern and degree of ERK activation over time compared with ERK immunoprecipitation and blot immunolabeling assays: PC12 cells with and without NGF, up to 480 min, extracts without purification; for levels of protein kinase activity in cellular extracts: PC12 extracts, no kinase purification, EGTA, calmidazolium, cAMP-dependent protein kinase inhibitor present. The procedure:
Cells were treated with or without added 100 ng/ml 7S nerve growth factor for up to 8 h. One group of cells was harvested for blot immunolabeling and solubilized with sodium dodecyl sulfate solution, as described in J. W. Haycock, “Multiple forms of tyrosine hydroxylase in human neuroblastoma cells: Quantitation with isoform-specific antibodies,” J. Neurochem., vol. […] A second group of cells was harvested for kinase assays and subjected to trituration in an ice-cold lysis solution of 50 mM β-glycerophosphate, 1 mM EGTA, 1 mM dithiothreitol, 1 mM benzamidine (Eastman Kodak Co., Rochester, N.Y.), 0.1 mM Na3VO4, 10 μg/ml leupeptin, and 0.05% Tween 20. Supernatants from the latter samples were generated by sonication and centrifugation (20 min at 10,000×g) in a refrigerated centrifuge (Savant, Farmingdale, N.J.). In some experiments, ERK1/2 was isolated prior to assaying kinase activity by immunoprecipitation of the PC12 cellular extracts with anti-pan ERK1/2 and protein A-Sepharose. […] ERK activity assays: Aliquots of supernatants or ERK1/2 immunoprecipitates (suspended in lysis solution) were mixed with substrate (1 mM final, unless stated otherwise) at 4° C. Phosphorylation reactions were initiated by addition of an equal volume of assay buffer containing [γ-^32P]ATP (NEN Life Sciences Products, now PerkinElmer Life Sciences, Boston, Mass.) and Mg^++ and allowed to proceed for 10 min at 30° C., after which duplicate 20 μl aliquots were spotted onto Whatman P81 paper. […] Experiments were conducted to test the ability of different substrates to assay for activation of ERK1/2 in situ. […] Cells were harvested and-assayed for ERK1/2 activity by various methods.

The next series relates to MAP kinase. The note with it: reported, Kameshita et al., 1997; cited from earlier work.
Series [2] addresses T1, ERK2. Particulars: described previously by Robinson et al., 1996; cited from earlier work.
Series [3] has as its target T1, ERK2. The experiment in a line: Phosphorylation of TH Ser31-containing peptides by purified, recombinant, activated ERK2. The series is classed as biochemical. From the text: Materials: Purified peptides were obtained from Sigma (St. Louis, Mo.) or custom synthesized by Louisiana State University Health Science Center Core Laboratories (New Orleans La.). Purified, activated ERK1 was a gift from Dr. M. H. Cobb (University of Texas Southwestern Medical Center, Dallas, Tex.). Purified, recombinant, activated ERK2 was a gift from Dr. N. G. Ahn (University of Colorado, Boulder, Colo.). Except as indicated below, other materials were purchased from Sigma. The new synthetic peptides modeled after […] in human tyrosine hydroxylase are indicated. ERK activity assays: Aliquots of supernatants or ERK1/2 immunoprecipitates (suspended in lysis solution) were mixed with substrate (1 mM final, unless stated otherwise) at 4° C. Phosphorylation reactions were initiated by addition of an equal volume of assay buffer containing [γ-^32P]ATP (NEN Life Sciences Products, now PerkinElmer Life Sciences, Boston, Mass.) and Mg^++ and allowed to proceed for 10 min at 30° C., after which duplicate 20 μl aliquots were spotted onto Whatman P81 paper. As would be predicted by the presence of multiple basic residues in the peptides, the ability of P81 paper to bind >90% of each of the peptides used in Tables 2 and 3 was confirmed by UV detection following RP-HPLC. The final reaction mixtures (50 μl) contained 50 mM β-glycerophosphate, 10 mM MgCl2, 1 mM EGTA, 1 mM dithiothreitol, 1 mM benzamidine, 0.1 mM ATP, 0.1 mM Na3VO4, 10 μM calmidazolium, 2 μM peptide inhibitor of cyclic AMP-dependent protein kinase ([…] ID NO: 24), 10 μg/ml leupeptin, and 0.025% Tween 20. Table 3 indicates the relative phosphorylation of TH-[…]-containing peptides by purified ERK2. […] These new substrates were assayed for the relative phosphorylation by purified ERK2 similar to the experiments that generated Table 3.

In series [4] the target is T1, ERK2. Particulars: stated for MBP protein as contrast to the peptides; cited from earlier work.

Where two headings read alike, the source gives them in different places.

Chain of ERK1 (P21708 2-380 limits assumed): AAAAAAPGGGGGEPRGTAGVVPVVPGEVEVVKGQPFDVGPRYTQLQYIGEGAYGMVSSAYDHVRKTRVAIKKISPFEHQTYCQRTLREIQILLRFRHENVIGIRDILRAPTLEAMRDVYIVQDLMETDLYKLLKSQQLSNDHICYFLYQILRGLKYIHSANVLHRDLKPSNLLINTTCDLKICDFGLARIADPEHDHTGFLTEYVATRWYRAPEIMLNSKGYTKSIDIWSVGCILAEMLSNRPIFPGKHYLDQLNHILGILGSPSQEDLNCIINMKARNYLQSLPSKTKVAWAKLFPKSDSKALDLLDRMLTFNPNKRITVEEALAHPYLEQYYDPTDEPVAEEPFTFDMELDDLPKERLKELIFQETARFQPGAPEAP
T1 sequence (P63086 2-358 limits assumed): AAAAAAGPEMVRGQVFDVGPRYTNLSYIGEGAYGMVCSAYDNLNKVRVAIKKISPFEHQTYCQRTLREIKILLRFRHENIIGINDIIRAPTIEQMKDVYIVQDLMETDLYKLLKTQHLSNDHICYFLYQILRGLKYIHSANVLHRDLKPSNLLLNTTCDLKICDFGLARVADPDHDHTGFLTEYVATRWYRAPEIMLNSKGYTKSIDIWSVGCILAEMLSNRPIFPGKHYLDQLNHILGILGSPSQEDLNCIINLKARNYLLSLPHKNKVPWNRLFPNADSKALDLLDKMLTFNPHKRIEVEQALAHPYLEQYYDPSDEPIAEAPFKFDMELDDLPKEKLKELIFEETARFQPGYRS

“APRTPGGRR (This sequence is MBPtide (Thr 97).) [SEQ ID NO: 2]” showed a 32P incorporation with ERK1 (peptide 1 mM, assay conditions of Table 2) of 330 nmol/min/mg. Further, the “RELATIVE 32P INCORPORATION (% OF MBP)” value with ERK1 was found to be 28 % OF MBP. Moreover, in the series with ERK2 [1], the “Kmin(app)” value worked out at 2.0 mM and the “Vmax(app) Relative” value worked out at 46. For the same molecule, in the series on ERK1/2, the “pattern and degree of ERK activation over time compared with ERK immunoprecipitation and blot immunolabeling assays” value was “differed”; the “levels of protein kinase activity in cellular extracts” value is given as “Higher levels of protein kinase activity”. For the same molecule, in the series on MAP kinase, the Km – broadly, the concentration of substrate that gives half-maximal velocity – was 1600 µM.
As for “ATGPLSPGPFGRR (ATGPLSPFGRR; This sequence is ERKtide.) [SEQ ID NO: 23]”, in the series with ERK2 [1], the “apparent Vmax” value turned out to be 9.4 µmol/min/mg, the “Kmin(app)” value was determined as 0.6 mM and the “Vmax(app) Relative” value is reported as 82. The “pattern and degree of ERK activation over time compared with ERK immunoprecipitation and blot immunolabeling assays” value in the series on ERK1/2 is listed as “faithfully reproduced”. Moreover, in the series with ERK2 [2], the Km was 450 µM.
As to “YQAEAIMSPRFIGRRQ (This sequence is new and based on TH-31 type 1 HUMAN.) [SEQ ID NO: 13]”, in the series with ERK2 [3] (mean of four determinations), the “RELATIVE 32P INCORPORATION (% 3.0 μmol/min/mg) Mean” value was 100 % 3.0 μmol/min/mg. The “RELATIVE 32P INCORPORATION (% 3.3 μmol/min/mg)” value in the series with ERK2 [3] (substrate 1 mM, median of three determinations) stood at 80 % 3.3 μmol/min/mg. The “Kmin(app)” value with ERK2 [1] amounted to 1.0 mM. In the series with ERK1/2, the “pattern and degree of ERK activation over time compared with ERK immunoprecipitation and blot immunolabeling assays” value is reported as “faithfully reproduced”.

B1: . . . KNIVTPRTPPPS . . . (protein, listed as Bos taurus)
chain: AAQKRPSQRSKYLASASTMDHARHGFLPRHRDTGILDSLGRFFGSDRGAPKRGSGKDGHHAARTTHYGSLPQKAQGHRPQDENPVVHFFKNIVTPRTPPPSQGKGRGLSLSRFSWGAEGQKPGFGYGGRASDYKSAHKGLKGHDAQGTLSKIFKLGGRDSRSGSPMARR
Consider B1, for which the “RELATIVE 32P INCORPORATION (% OF MBP)” value in the series with ERK1 came to 100 % OF MBP. Moreover, in the series on ERK1/2, the “pattern and degree of ERK activation over time compared with ERK immunoprecipitation and blot immunolabeling assays” value is listed as “differed”; the “levels of protein kinase activity in cellular extracts” value is “Higher levels of protein kinase activity”. The Km with ERK2 [4] is 10 to 50 µM.
